The values below come from publication PMC5397175.

Data set [1] addresses Sam68 STAR domain (UniProt Q07666). In words: fluorescence polarization. Conditions: FP buffer, salt, pH and temperature not given in the material; SD from three independent experiments. For orientation: Fluorescence polarisation rises when a labelled molecule tumbles more slowly, as on binding a larger partner.
Data set [2] addresses T1, SLM2 (T-STAR) STAR domain (UniProt O75525).
T1 sequence: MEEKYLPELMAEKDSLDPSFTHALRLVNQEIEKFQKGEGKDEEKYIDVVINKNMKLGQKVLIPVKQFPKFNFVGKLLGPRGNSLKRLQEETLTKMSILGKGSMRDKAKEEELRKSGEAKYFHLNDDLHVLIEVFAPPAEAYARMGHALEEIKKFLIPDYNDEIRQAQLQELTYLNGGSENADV
In words: fluorescence polarization. The conditions noted are these: FP buffer, salt, pH and temperature not given in the material; SD from three independent experiments.

One may read the Kd as a measure of binding affinity in units of concentration.

Chain of Sam68 STAR domain (Q07666 97-283): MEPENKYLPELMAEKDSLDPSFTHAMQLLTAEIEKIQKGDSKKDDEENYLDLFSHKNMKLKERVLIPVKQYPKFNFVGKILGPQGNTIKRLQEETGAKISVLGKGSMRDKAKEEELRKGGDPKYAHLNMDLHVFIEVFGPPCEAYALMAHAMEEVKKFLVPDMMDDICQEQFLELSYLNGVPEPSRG

Turning to CCCACAGUUUAAAAUUUGAUAAAAUUU [Stxbp5l 1], the Kd in data set [1] was 15.5 µM; in data set [2], 24 µM.
The like results for “CCCUUACAUUUAAAAGAUGAUUUAAAAA [Stxbp5l 2]” were, in that order, 13.8 µM and 18.2 µM.
